In data set [1] the target is T1, Human IL-1β, Fc tagged (Acro Biosystems ILA-H525c) (human, UniProt P01584 117-269).
T1 construct: Bought BLI ligand, loaded on anti-human Fc probes; also called BLI ligand; not shown: Fc tag
Nature of the data set: BLI (Gator), Fc-tagged IL-1β on anti-human Fc probes, conjugate as analyte, 1:1 global fit.

Data set [2] in a line: Hydrodynamic radius by dynamic light scattering (DLS). In kind it is physicochemical. As to conditions: 25° C.
Description: The reaction products were further analyzed for protein concentration, percent unconjugated peptide, conjugated peptide, valency (molar ratio of conjugated peptide to polymer), and hydrodynamic radius (Rh). Protein concentration was determined based on spectrophotometry at A280, percent unconjugated protein was determined by densitometric analysis of the SDS-PAGE gels, and hydrodynamic radius was measured using dynamic light scattering (DLS).
Dynamic light scattering (DLS) was performed to quantify the hydrodynamic radius (Rh) for purified unconjugated protein or MVP as an assessment of size using either a Wyatt Dynapro single cuvette Nanostar, plate reader or similar instrument.
Samples were equilibrated to room temperature for at least 30 minutes. The solution was diluted in 0.1 μm filtered formulation buffer without polysorbate 20 to a final concentration of 100 nM in 100 μL (typically a 1:10 dilution) and mixed by gentle trituration in a 1.5 mL centrifuge tube or up to 30 minutes on a neutator. Large aggregates and dust particles could be removed by spinning the tubes at 5000 g for 5 minutes in a centrifuge. For single cuvette measurements in a NanoStar, a 40 μL sample of the sample solution was loaded into a Wyatt Technology disposable microcuvette (Wyatt Cat #WNDMC) with cap, tapped to remove bubbles, and placed into the instrument for analysis. For multiple readings using the plate reader, 25-35 μL of sample was added to a clear bottomed black well 384 well plate (Corning Cat #P8802-384 or similar). Bubbles in the sample wells were removed.
Data set [3] relates to experimental autoimmune uveoretinitis (EAU) in rats. Nature of the data set: Rat experimental autoimmune uveoretinitis (EAU) model, Example 8. In kind it is in vivo, Male Lewis rats. As to conditions: vs vehicle. As to the method:
The efficacy of mu_anti-TNFα_aH_CYS MVPs were validated to provide a treatment effect that can sufficiently reduce the symptoms of uveitis. A rat model of experimental autoimmune uveoretinitis (EAU) was used as a model of chronic posterior uveitis in humans. This model was induced by systemic immunization with the uveitogenic interphotoreceptor retinoid-binding protein (IRBP), and symptoms of uveitis appeared after 9-11 days. Rats were treated intravitreally with 12.5 μg of mu_anti-TNFα_aH_CYS MVP (Conjugate #7). As a positive control, dexamethasone was used.
Male Lewis rats were divided into 4 groups (n=8) and randomized by weight. […] On Day 1, rats were immunized by a subcutaneous injection at the base of the tail and in each thigh with 30 μg of bovine IRBP peptide R16 in 0.2 mL of Freund's adjuvant. On days 8 and 10, rat eyes were treated bilaterally with a 5 μL ITV injection of either dose of their assigned treatment. Prior to the start of the study and on days 7, 9, 11, 14, we assessed ocular inflammation by slit lamp microscopy and assigned a clinical EAU score of 0-4 based on the appearance of inflammation. On day 14, animals were euthanized, one eye from each animal was processed for histopathology, and assigned a score of 0-4 based on the appearance of inflammation and cell infiltration. EAU and histopathology were scored based on published standardized scoring systems.

Data set [4] addresses T2, Human TNFα (Homo sapiens, UniProt P01375).
T2 construct: Avi; His; purchased Acro Biosystems TNA-H82E3
As to the kind of experiment: Biolayer interferometry (BLI) binding kinetics, Human TNFα ligand. As to conditions: purified conjugate.
Description: Biolayer interferometry (BLI) was performed to quantify binding kinetics for purified MVP as an assessment of bioactivity using a GatorPrime (Gator Bio) or similar instrument and either streptavidin coated probes (Cat #160002) for AVI-tagged ligands or anti-Human Fc (Cat #160003) coated probes for Fc-tagged ligands. All analytes and ligands were diluted in BLI Buffer (1×dPBS, 0.1% w/v BSA and 0.1% v/v polysorbate 20, 0.2 μm filtered). The appropriate ligand for each analyte as noted in Table 6 was first resuspended and stored for long term use according to the manufacturer's directions. The unconjugated analytes were diluted to a top concentration in the range of 5 μM to 1 nM. The multivalent conjugates were diluted to a top concentration of 50-1.0 nM based on the entire multivalent conjugate molecular weight ((protein MW×valency)+polymer mw).
All reagents were equilibrated to room temperature before use for at least 30 minutes. Two probes per sample (one for kinetic assay and one for ligand free control) were equilibrated in 250 μL BLI buffer (PBS pH 7.4, 0.2% Tween and 0.2% BSA filtered at 0.2 μm) for at minimum 10 min in a Gator Bio Max plate. Ligands were diluted to a fixed concentration of 25-100 nM based on performance in pilot reactions in BLI buffer. Analytes were prepared at the top concentration determined in pilot reactions in BLI buffer and serially diluted 1:3 two to five more times using BLI buffer (Table 6). Black flat-bottom non-coated 96 well plates (Greiner Bio One Cat #655209 or similar) were loaded column-wise with 200 µL of ligand, analyte dilutions and one column of BLI buffer for each column of ligand and analyte. One well in each column of analyte was BLI buffer to be used as a blank for reference subtraction. The sample plate was placed in the Gator on a tilted platform set to 25° C. Ligand was loaded until signal reaches between 0.4 and 0.6 nm then returned to buffer column for a baseline measurement for 60-90 s. Next, the kinetic reads were started using the step parameters. When kinetic reads were complete with ligand-loaded probes, a ligand free control was run using new probes that were not loaded with the ligand. The same kinetic assay timing and same sample wells were used that were analyzed with ligand loaded probes.
When kinetic assay was complete, data was analyzed using the Gator software. The raw data was corrected to include the association time after 1 second to 180 seconds. The Y-axis was aligned to the beginning of the association step and interstep correction was used. Savitzky-Goaly filtering of data was used. The samples were set for a double reference by denoting which probes and wells were buffer references in the software. […]

Data set [5] can be described thus: Long-term 37° C. stability in vitreous mimetic buffer, radius by DLS. In kind it is physicochemical. As to conditions: FIG. 4C; after 35 days at 37° C. in vitreous mimetic buffer. The procedure: We then used the top performers from the thermal stability experiments in a long-term 37° C. stability studies. The MVPs were synthesized under sterile conditions and diluted to around 0.4 mg/mL in a sterile filtered human vitreous mimetic buffer (see Table 10) or remained in formulation buffer. The samples were either filtered using sterile 0.2 or 5 μm spin filters before use or mixed with 0.010% sodium azide as an anti-microbial agent. Then, several 100-150 μL aliquots of each sample were added to wells of a sterile 96 well plate with one day 0 aliquot reserved at 4° C. The remaining wells were filled with a sterile filtered human vitreous buffer+0.01% sodium azide to minimize evaporation. The plate was incubated in a standard tissue culture incubator at 37° C. with 5% CO2. At discrete timepoints, one aliquot from each sample was removed from the plate under sterile conditions and analyzed. […] Then, the protein concentration was measured to adjust for any differences in volume that may have occurred. […] To monitor changes in radius over time, the samples were spun for 5 minutes at 5000 g to remove any large aggregates or dust particles and the Rh was measured using DLS methods described above except that the instrument is at 37° C. and without any sample dilution.

T2 sequence (P01375 77-233 limits assumed): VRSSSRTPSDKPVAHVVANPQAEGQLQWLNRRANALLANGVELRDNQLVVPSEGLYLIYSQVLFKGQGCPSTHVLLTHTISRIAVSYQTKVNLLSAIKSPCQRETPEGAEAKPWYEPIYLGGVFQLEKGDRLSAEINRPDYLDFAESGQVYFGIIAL

B1: (SEQ ID NO:106)+HyA (850 kDa) conjugate #9, valency 15 (other)
scFv: EIVMTQSPSTLSASVGDRVIITCQASQSIDNWLSWYQQKPGKAPKLLIYRASTLASGVPSRFSGSGSGAEFTLTISSLQPDDFATYYCQNTGGGVSIAFGQGTKLTVLGGGGGSGGGGSGGGGSGGGGSEVQLVESGGGLVQPGGSLRLSCTASGFSLSSAAMAWVRQAPGKGLEWVGIIYDSASTYYASWAKGRFTISRDTSKNTVYLQMNSLRAEDTAVYYCARERAIFSGDFVLWGQGTLVTVSSSPSTPPTPSPSTPPGGC
modifications: C-terminal cysteine thiol of the rigid peptide linker joined through the EMCH organic linker to hyaluronic acid
Consider B1, for which the Kd in data set [1] stood at 0.353 nM.

B2: Conjugate #7: (SEQ ID NO:104, anti-TNFα 3MUT VHH (mouse)-aH)+HyA (850 kDa) conjugate, MP2H linker, valency 98 (conjugate)
VHH: QVQLQESGGGLVQAGGSLRLSCAASGGTFSSIIMAWFRQAPGKEREFVGAVSWSGGTTVYADSVKGRFTISRDSARKSVYLQMNSLKPEDTAVYYCAARPYQKYNWASASYNVWGQGTQVTVSSAEAAAKEAAAKEAAAKAGC
modifications: hyaluronic acid 850 kDa conjugate via MP2H linker; anti-TNFalpha 3MUT VHH (mouse)- aH
On to B2, for which the “Rh (nm, DLS)” value in data set [2] is recorded as 76.42 nm. The “Average inflammation score (0=none to 4=severe)” value in data set [3] (FIG. 6A, rat EAU, ITV, or Conjugate #7 (12.5 μg), n=8, one day after ITV treatment) is reported as “decreased inflammation compared to the vehicle control”. In data set [3] (FIG. 6B, rats sacrificed 14 days after model induction, p<0.05), the “Average histology inflammation score (0=none to 4=severe)” value is reported as “less inflamed than vehicle treated eyes”. The molecule also showed an equilibrium dissociation constant (Kd) in data set [4] of at most 0.001 nM. For the same molecule, the “conjugate size (DLS) as share of the original radius” value in data set [5] is “about 75%”.
